Experimental findings from US12202907B2, “Nucleic acids encoding and methods of producing proteins comprising antibody chains” (Innate Pharma, priority 2018, dated 2025) are described below.

The target of assay [1] is T1, CHO cells expressing human CD39 (Homo sapiens, UniProt P49961).
T1 construct: expressed in transfected cells; host or cells: CHO
T1 sequence (P49961 1-510): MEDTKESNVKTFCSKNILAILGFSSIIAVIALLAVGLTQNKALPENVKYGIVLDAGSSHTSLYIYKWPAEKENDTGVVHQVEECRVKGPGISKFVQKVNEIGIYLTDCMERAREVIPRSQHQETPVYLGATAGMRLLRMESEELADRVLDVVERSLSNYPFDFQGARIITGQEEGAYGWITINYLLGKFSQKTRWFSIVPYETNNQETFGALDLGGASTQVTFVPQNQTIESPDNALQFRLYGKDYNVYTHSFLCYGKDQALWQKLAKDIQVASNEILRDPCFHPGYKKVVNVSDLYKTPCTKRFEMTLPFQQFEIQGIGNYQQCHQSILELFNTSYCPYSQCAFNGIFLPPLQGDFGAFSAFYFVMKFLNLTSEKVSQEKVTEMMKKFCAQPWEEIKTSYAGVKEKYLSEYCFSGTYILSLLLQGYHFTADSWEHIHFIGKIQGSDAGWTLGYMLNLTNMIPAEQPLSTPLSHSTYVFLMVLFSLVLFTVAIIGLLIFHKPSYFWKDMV
The assay can be described thus: Antibody titration on CHO-huCD39 by flow cytometry. The class given is binding. The note with it: qualitative. The protocol: Antibody I-394 was tested in two repeated experiments for binding to CHO cells expressing human CD39, CHO cells expressing cynomolgus (Macaca fascicularis) CD39, CHO cells expressing murine CD39, and human Ramos lymphoma cells (ATCC™, reference CRL-1596). Cells were incubated with various concentration of unlabeled anti-CD39 antibody from 30 μg/ml to 5×10^−4 μg/ml, for 30 minutes at 4° C. After washes, cells were incubated with Goat anti-mouse H+L labeled secondary antibody for 30 min at 4° C.
On the technique in general: A flow cytometer gives signals particle by particle.

For assay [2], the target named is T2, CD39 mutants transfected in Hek-293T cells (Homo sapiens, UniProt P49961, E142K/M139A/R138A).
T2 construct: expressed in transfected cells; host or cells: HEK293T
T2 sequence (P49961 1-510 R138A/M139A/E142K): T1 sequence (P49961 1-510) with R138A, M139A, E142K
Briefly: Epitope mapping: binding to CD39 mutants by flow cytometry. The note with it: mutant 19: R138A, M139A, E142K. The procedure:
(§1) CD39 mutants were generated by PCR. The sequences amplified were run on agarose gel and purified using the Macherey Nagel PCR Clean-Up Gel Extraction kit (reference 740609). The purified PCR products generated for each mutant were then ligated into an expression vector, with the ClonTech InFusion system. The vectors containing the mutated sequences were prepared as Miniprep and sequenced. After sequencing, the vectors containing the mutated sequences were prepared as Midiprep using the Promega PureYield™ Plasmid Midiprep System. HEK293T cells were grown in DMEM medium (Invitrogen), transfected with vectors using Invitrogen's Lipofectamine 2000 and incubated at 37° C. in a CO2 incubator for 48 hours prior to testing for transgene expression. The targeted amino acid mutations in the table 1 below are shown using numbering of SEQ ID NO: 1.
(§2) In order to define the epitopes of anti-CD39 antibodies, we designed CD39 mutants defined by substitutions of amino acids exposed at the molecular surface over the surface of CD39.
(§3) Dose-ranges of I-394 (10-2.5-0.625-0.1563-0.0391-0.0098-0.0024-0.0006 μg/ml) are tested on the 20 generated mutants by flow cytometry. […] Mutant 5 contains amino acid substitutions at residues Q96, N99, E143 and R147. […]

Assay [3] has as its target T3, CD39 mutants transfected in Hek-293T cells (Homo sapiens, UniProt P49961, E143A/N99A/Q96A/R147E).
T3 construct: expressed in transfected cells; host or cells: HEK293T
T3 sequence (P49961 1-510 Q96A/N99A/E143A/R147E): T1 sequence (P49961 1-510) with Q96A, N99A, E143A, R147E
Described as above. The note with it: mutant 5: Q96A, N99A, E143A, R147E. The protocol:
as §1, §2, §3

Changes are numbered by the printed parent chain.

Turning to “I-394: anti-CD39 antibody, VH SEQ ID NO: 6, VL SEQ ID NO: 7, human IgG1 Fc with L234A/L235E/G237A/A330S/P331S”, in assay [1], the “binding to cells expressing human CD39 (CHO-huCD39)” value is “bound”. Besides, the “binding to cells expressing mutant 19 of CD39” value in assay [2] was “complete loss of binding”. Besides, the “binding to cells expressing mutant 5 of CD39” value in assay [3] is on record as “strongly reduced binding to mutant 5 (but with some residual binding to mutant 5)”.
